Experiment: yeast display, Sf9 membrane polyspecificity reagent, FACS + sequencing; frameworks hold sequencing errors
How it was run: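 Nanobodies came from a synthetic yeast display library in Saccharomyces cerevisiae BJ5465, induced with galactose for 36–48 hours and stained for 1 hour at 4 °C with 10% biotinylated, detergent-solubilized Sf9 membrane reagent. Cells were enriched on streptavidin microbeads and then FACS-sorted, with low and high (top ~1%) gates set on anti-HA fluorescence for expression and streptavidin fluorescence for reagent binding. Each polyreactivity label reflects the gate a clone came from. Genes were amplified by colony PCR, sequenced by MiSeq 2 × 250 and filtered by CDR length.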
In the case of “QVQLVESGGGLVQAGGSLRLSCAATGRTFVTYAMGWYRQAPGKEREFVAAITWSTGTSTYYADSVKGRFTISRDNAKNTVFLQIHSLNQEDTAVDYCHADSQEWIWLYEGYDYWGQGTQVSVSS”, the “polyreactivity (PSR sort gate)” value is reported as “low polyreactivity”. For “QVQLVESGGGLVQAGGSLRLSCAATGRTLGGNAMGWYRLAPGKEREFVARISTRGVRTYYAYSVKGRFTISRDNAKNTVDLQLNSLNPEDTAVYYCAKQVSYGHIGSYPDRDSWGQGTQVTVSS”, the “polyreactivity (PSR sort gate)” value was “low polyreactivity”. With “QVQLVESGGGLVQAGGSLRLSCAATGRTSTYYPMGWYRQAPGKERELVAAIRSGTITNYADSVKGRFTISRDNAKNTVYLQMNSLKPEDSAVYYCAAKYRYSTYHRGSFNYWGQGTQVTVSS” the “polyreactivity (PSR sort gate)” value was “high polyreactivity”. With “QVQLVESGGGLVQAGGSLRLSCAATGSIFARYAMGWYRQAPGKERELVAAIDQSAGSTYYADSVKGRFTISRDNAKNTVYLQMNSLKPEDTAVYYCNADFWYWWVNTYVGPGLGYWGQGTQVTVSS” the “polyreactivity (PSR sort gate)” value was “high polyreactivity”. With “QVQLVESGGGLVQAGGSLRLSCAATGSIFFDNAMGWYRQAPGHERELVAAITSSGGRTYYADSVKGRFTISRDNAKNTVYLQMNSLKPEDTAVYYCAASPKYTTGRYSGEYWGQGTQVTVSS” the “polyreactivity (PSR sort gate)” value was “low polyreactivity”. With “QVQLVESGGGLVQAGGSLRLSCAATGSIFFINAMGWYRQAPGKERELVAAITWDGGSTYYADSVKGRFTISRVNAKNTVYLQMNSLKPEDTAVYYCAAVADYYDFISPPLDYWGQGTQVNVSS” the “polyreactivity (PSR sort gate)” value was “low polyreactivity”. With “QVQLVESGGGLVQAGGSLRLSCAATGSIFNFYAMGWYRQAPGKERELVAAIDQNGGSTYYADSVKGRFTISRDNAKNTVYLQMNSLKPVDTAVYYCAKDHQSGRRTYTYRYDYWGQGTQVTVSS” the “polyreactivity (PSR sort gate)” value was “low polyreactivity”. For “QVQLVESGGGLVQAGGSLRLSCAATGSTFHNYAMGWYRQAPGKERELGAGISVRGGGTYYADSVKGRFTISRDNAKNTVYLQMNSLKPEDTAVYYFAKRSRYYYRYDYWGQGTQVTVSS”, the “polyreactivity (PSR sort gate)” value was “high polyreactivity”. In the case of “QVQLVESGGGLVQAGGSLRLSCAATGSTFIGYAMGWYRQAPGKETELVAAISEIGGSTYYADSVKGRFTISRDNAKNTVYLKMNSLKPEDTAVDYCAATEVYLYFWYGYEYWGQGTQVTVSS”, the “polyreactivity (PSR sort gate)” value is reported as “low polyreactivity”. With “QVQLVESGGGLVQAGGSLRLSCAATGSTLVPNAMGWYRQAPGKERELVAAITRGTITHYADSVKGRFTISRDNAKNTVYVQMNSLKPEDTAVYYCNADVSLDDYDYWGQGTQVTVSS” the “polyreactivity (PSR sort gate)” value was “low polyreactivity”. For “QVQLVESGGGLVQAGGSLRLSCAATGYIGGNAMGWYRQAPWKERELVATLSRSGGSTYYADSVKGRFTISRDNAKNTVYLQMNSLKPEDSAVYYCAAVSYGNYHWGMYYWGQGTQVTVSS”, the “polyreactivity (PSR sort gate)” value was “low polyreactivity”. In the case of “QVQLVESGGGLVQAGGSLRLSCAATGYTFYIYAMGWYRQARGKERELVASITSDGRTNYADSVKGRFTISRDNAKNTVYLQMNSLKPEDTAVYYCATVGKVHDRLVAMDYWGQGTQVTGSS”, the “polyreactivity (PSR sort gate)” value is reported as “low polyreactivity”. In the case of “QVQLVESGGGLVQAGGSLRLSCAATRRTFYSYAMGWYRQAPGKESELLASITSTGSTYYADSVKGRFTISRDNAKNTVYLQMNSLKPEDTAVYYCAARRQPRYSQRSTYYYWGQGTQVTVSS”, the “polyreactivity (PSR sort gate)” value is reported as “high polyreactivity”. For “QVQLVESGGGLVQAGGSLRLSCAATVLKFGKNPMGSYRQATGKERELVAVISWRGSSTYYADSVKGRFTISRVNAKNTVFLQMNSLKPEDTAVYYCTDVYVYVHYQPGYYWGQGTQVTVSS”, the “polyreactivity (PSR sort gate)” value was “low polyreactivity”. With “QVQLVESGGGLVQAGGSLRLSCAAYAMGWYRQAPGKERELVAAMSSSGGSTYYADSVKGRFTISRDNAKTTVYLQMTSLKPEDTAVYYCARDPDTYFFPPTGYYTSGFDSWGQGTQVTVSS” the “polyreactivity (PSR sort gate)” value was “low polyreactivity”. For “QVQLVESGGGLVQAGGSLRLSCAAYGFIFKFYAMGWYRQAPGKERELVAAITSGGGRTYYADSVKGRFPISRDNAKNTVYLQMNSLKAQDSAGYYCAVDYLQYYYKKHYYGGQGTQVTVSS”, the “polyreactivity (PSR sort gate)” value was “high polyreactivity”. In the case of “QVQLVESGGGLVQAGGSLRLSCAAYGFTFIYYAMGRYRQAPGKERELVAAISRRGGSTYYADSVKGRFTISRDNAKNTVYLQMNSLKPEDTAVYYCAAYTLNTRYDYWGQGTQVTVSS”, the “polyreactivity (PSR sort gate)” value is reported as “high polyreactivity”. In the case of “QVQLVESGGGLVQAGGSLRLSCAAYGFTFSRKAMGWYRPAPGKERELVAAISIRGGSTYYADSVKGRFTISRDNAKITVYLQMNSLKPEDTAVYYCAALYRPTDYDYWGQGTQVTVSS”, the “polyreactivity (PSR sort gate)” value is reported as “high polyreactivity”. For “QVQLVESGGGLVQAGGSLRLSCAAYGGIFSYNAKGWYSQAPGKEREFVASISSSGGRTYYADSVKGRFTISRDNAQNTVYLQMKSLKPEDTAVYYCAKRGQLRHYSWGQGTQVTVSS”, the “polyreactivity (PSR sort gate)” value was “low polyreactivity”. With “QVQLVESGGGLVQAGGSLRLSCAAYGGTFYYYAMGWYRQAPGKEREFVAAITWTGGRTYYADSVKGRFTISRDNAKNTVYLQMNSLKPEDTAVYYCAASDRYGGRDYWGQGTQVTVSS” the “polyreactivity (PSR sort gate)” value was “high polyreactivity”. In the case of “QVQLVESGGGLVQAGGSLRLSCAAYGITFKGNAMGWYRQAPGKERELVAAIRWRAGRTYYADSVKGRFTISRDNAKNTVYLQMNSLKPEDTAVYDCAATYSYLWPEYDYWGQGTQVTVSS”, the “polyreactivity (PSR sort gate)” value is reported as “high polyreactivity”. In the case of “QVQLVESGGGLVQAGGSLRLSCAAYGRIFGPYASGWYIQAPGKERELVAAITLSGGGTYADSVKGRFTISRDNAKNTVYLQMNSLKPEDTAVYYCAADSYRLLNSDTGEFEYNYWGQGSQVTVSS”, the “polyreactivity (PSR sort gate)” value is reported as “low polyreactivity”. In the case of “QVQLVESGGGLVQAGGSLRLSCAAYGRIFLPNSMGWYIQAPGKERELVAAITWSGGSTYYADSVKGRFTISRDNAKYTVFLQMTSLIPEDTAVYYGAGRGFSYRRRSQQFDYWGLGTQVTVSS”, the “polyreactivity (PSR sort gate)” value is reported as “high polyreactivity”. For “QVQLVESGGGLVQAGGSLRLSCAAYGRIFNEYAKGWYRQAPGKERELVAAITYSDDSTYYADSVKGRFTISRDNAKNTVYLQLNSLKPEDTAVYYCNADTPVWDGHAYPVDYWGQGTQVTVSS”, the “polyreactivity (PSR sort gate)” value was “low polyreactivity”. In the case of “QVQLVESGGGLVQAGGSLRLSCAAYGRIFRYYAMGWYRQAPGKERELVAGISWRGSSTYYADSVKGRFTLSRDNAKNTVYLQMNSLKPEDTAVYYCNRDQSNIPVTGVRFYYWGQGTQVTVSS”, the “polyreactivity (PSR sort gate)” value is reported as “high polyreactivity”. For “QVQLVESGGGLVQAGGSLRLSCAAYGRIFSRYAMGWYRQAPGKERELVAAISSSGTTTYYADSVNGRFTISRDTAKNTVYLQMNSLKPEDTAVYSCATSAVRHIYWGQGTQVTVSS”, the “polyreactivity (PSR sort gate)” value was “high polyreactivity”. For “QVQLVESGGGLVQAGGSLRLSCAAYGRIFSSYAMGWYRQAPGKERELVAAISSSGGRTYYADSVKGRFTISRDNAKNTVYLQMNRLKPEDTAVYYFARVTTGGYEYWGQGSQVTVSS”, the “polyreactivity (PSR sort gate)” value was “high polyreactivity”. In the case of “QVQLVESGGGLVQAGGSLRLSCAAYGRILSVYAMGWYRQAPGKERELVAAISSTGGTYYADSVKGRFTISRDNAKNTVYLQMNSLKPEDTADYYCAARYSTLTKYYWGQGTQVTVSS”, the “polyreactivity (PSR sort gate)” value is reported as “low polyreactivity”. For “QVQLVESGGGLVQAGGSLRLSCAAYGRTFEINAMGWYRQATGKERELVAAISWDDGSTYYADSVKGRFTISRDNAKNTVYLQMNSLKPEDTAVYYCAAESPLHYTHRRGYEYWGQGTQVTVSS”, the “polyreactivity (PSR sort gate)” value was “low polyreactivity”. With “QVQLVESGGGLVQAGGSLRLSCAAYGRTFWSYAMGWYRQAPGKERELVADISLDDGTTYYADSVKGRFTISRDNAKNTVYLHMNSLKPEDTAVYYCAAERDQGDDGYGPDYGYWGQGTQVTVSS” the “polyreactivity (PSR sort gate)” value was “high polyreactivity”. With “QVQLVESGGGLVQAGGSLRLSCAAYGRTIPIYAMGWYRQAPGKEREFVAGINWSGGSTSYADSVKGRFTISRDNAKNTVYLQMNSLKPEDTAVYYCDADKYYRYNYWGQGTQVTVSS” the “polyreactivity (PSR sort gate)” value was “high polyreactivity”. In the case of “QVQLVESGGGLVQAGGSLRLSCAAYGRTLRGYAMGWYRQAPGKERELVAALTWSGGSTYYADSVKGRFTISRDHAKNTVYLQMNSLKPEDTAVYYCNARSYPDLYDYWGQGTQVTVSS”, the “polyreactivity (PSR sort gate)” value is reported as “low polyreactivity”. In the case of “QVQLVESGGGLVQAGGSLRLSCAAYGRTLYYNTMGWYRQAPGKERELVASIRWDGGRTYYADSVKGRFTISRDNAKNTVYLQLNSLKPEDTAVYYCAKDGGYYYGTYAYDGCFDYWGQGTQVTVSS”, the “polyreactivity (PSR sort gate)” value is reported as “low polyreactivity”. With “QVQLVESGGGLVQAGGSLRLSCAAYGSIFAYNAMGWYRQAPGKEREFVAVITRSDDSTYADSVTGRFTISRDNAKNTVYLQMNSLKPVDTAVYYCAAQPFVIDGGYRGDYWGQGTQVTVSS” the “polyreactivity (PSR sort gate)” value was “low polyreactivity”. With “QVQLVESGGGLVQAGGSLRLSCAAYGSIFGSNAIGCYIQAPGKERELVAAISSGSTYYADTVKGRFTISRDNAKNTVYLQMNSLKPEDNAVYYCNARSLLYEFDYWGQGTQVTVSS” the “polyreactivity (PSR sort gate)” value was “low polyreactivity”. In the case of “QVQLVESGGGLVQAGGSLRLSCAAYGSIFRKYVMGWYRQAHGKERELVAVISSGTGTYYADSVKGRFTISRDNAKNTVYLQMNSLNPEDTAVYYCAARVGRYGYSQYYYWGHGTQVTVSS”, the “polyreactivity (PSR sort gate)” value is reported as “high polyreactivity”. In the case of “QVQLVESGGGLVQAGGSLRLSCAAYGSIFRWYAMGWYRQAPGKERELVAAISTSGGNKYYADSVKGRFTISRDNAKNTVYLQMNSLKPEDTAVYYCNALWYRSLSYRYDYWGQGTQVTVSS”, the “polyreactivity (PSR sort gate)” value is reported as “high polyreactivity”. In the case of “QVQLVESGGGLVQAGGSLRLSCAAYGSIFSENAMGWYRQAPGKEWELVADITDGGGSTYYADSVKGRFTISRDNAKNPVYLQMNSLKPDDTAVYYCNAQIFFFAPWYYEYDYWGQCTQVTVSS”, the “polyreactivity (PSR sort gate)” value is reported as “low polyreactivity”. In the case of “QVQLVESGGGLVQAGGSLRLSCAAYGSIFVLNAMGWYRQAPGKERQLVAAITNVGSTYYADSVKGRFTISRDNAKNTVYLQMNSLKPEDTAVYYCNADPGEVLVGYDYWGQGTQVSVSS”, the “polyreactivity (PSR sort gate)” value is reported as “low polyreactivity”. In the case of “QVQLVESGGGLVQAGGSLRLSCAAYGSILRSNAMGWYRQAPGKERELVAVISNDDSTYYADSVKGRFTISRDNAKNTVYLQMNSLKPEDTAVYYCNAVYYYFFRWNPIYDSWGQGTQVTVSS”, the “polyreactivity (PSR sort gate)” value is reported as “low polyreactivity”. With “QVQLVESGGGLVQAGGSLRLSCAAYGSNFTSNAMGWYRQAPGKERELVAVITIGGSTNYADSVKGRFTISRDNAKNTVYLQMNSLKPEDTAVYYCAADDDYSRILQGDQSDDYWGQGSQVTVSS” the “polyreactivity (PSR sort gate)” value was “low polyreactivity”.
